Results reported in publication PMC5462952.

Target: HA-tagged C-terminal region of CaV1.3α (aa 1509–2203) (rat) (UniProt P27732)
Chain of UniProt P27732 (P27732 1509-2203): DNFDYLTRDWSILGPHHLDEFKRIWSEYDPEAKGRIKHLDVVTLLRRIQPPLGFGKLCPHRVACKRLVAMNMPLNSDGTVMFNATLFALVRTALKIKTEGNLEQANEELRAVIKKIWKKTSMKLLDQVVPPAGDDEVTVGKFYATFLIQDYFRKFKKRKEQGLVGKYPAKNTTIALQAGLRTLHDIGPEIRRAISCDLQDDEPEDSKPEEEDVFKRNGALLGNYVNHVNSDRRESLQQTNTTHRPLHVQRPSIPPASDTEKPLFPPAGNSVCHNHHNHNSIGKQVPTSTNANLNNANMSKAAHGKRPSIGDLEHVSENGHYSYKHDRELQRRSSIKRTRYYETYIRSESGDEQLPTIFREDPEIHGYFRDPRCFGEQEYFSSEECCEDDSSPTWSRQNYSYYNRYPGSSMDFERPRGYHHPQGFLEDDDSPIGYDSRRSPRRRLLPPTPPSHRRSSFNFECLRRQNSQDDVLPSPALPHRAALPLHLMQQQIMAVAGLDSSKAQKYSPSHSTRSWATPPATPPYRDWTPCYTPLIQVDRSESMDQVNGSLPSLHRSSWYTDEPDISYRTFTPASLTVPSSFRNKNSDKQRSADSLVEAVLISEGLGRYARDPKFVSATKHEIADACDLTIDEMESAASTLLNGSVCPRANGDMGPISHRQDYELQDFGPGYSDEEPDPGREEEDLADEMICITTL

shift of the voltage-dependence of CaV1.3 channel activation in HEK293/SK3-1 cells co-expressing RIM2α: 3 mV
Substance: full-length untagged RIM2α (from UniProt Q9EQZ7-1 1-1530) (natural protein)
